Laboratory results: publication PMC11853100 (2025)

Biological target: T1, Pneumolysin (Ply) (Streptococcus pneumoniae, UniProt Q04IN8)
T1 chain: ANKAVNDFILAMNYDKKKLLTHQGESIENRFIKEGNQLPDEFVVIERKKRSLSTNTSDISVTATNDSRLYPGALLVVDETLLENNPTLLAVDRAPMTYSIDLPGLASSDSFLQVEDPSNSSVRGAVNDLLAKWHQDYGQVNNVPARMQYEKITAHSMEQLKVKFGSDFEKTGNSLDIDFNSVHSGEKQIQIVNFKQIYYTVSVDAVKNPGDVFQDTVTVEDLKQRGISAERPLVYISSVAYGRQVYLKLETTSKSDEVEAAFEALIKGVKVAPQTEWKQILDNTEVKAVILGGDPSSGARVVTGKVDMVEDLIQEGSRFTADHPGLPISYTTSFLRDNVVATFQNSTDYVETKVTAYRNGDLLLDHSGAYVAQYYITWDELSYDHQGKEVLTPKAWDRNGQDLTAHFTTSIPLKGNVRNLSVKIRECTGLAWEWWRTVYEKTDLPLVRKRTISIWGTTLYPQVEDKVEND
Assay: ITC; given as Ka

B1: SpnPrsA (protein)
chain: CSKGSEGADLISMKGDVITEHQFYEQVKNNPSAQQVLLNMTIQKVFEKQYGSELDDKEVDDTIAEEKKQYGENYQRVLSQAGMTLETRKAQIRTSKLVELAVKKVAEAELTDEAYKKAFDEYTPDVTAQIIRLNNEDKAKEVLEKAKAEGADFAQLAKDNSTDEKTKENGGEITFDSASTEVPEQVKKAAFALDVDGVSDVITATGTQAYSSQYYIVKLTKKTEKSSNIDDYKEKLKTVILTQKQNDSTFVQSIIGKELQAANIKVKDQAFQNIFTQYIGGGDSSSSSSTSNE
For B1, the Kd was 119 nM.
